In patent US20200277373A1, “ANTI-TREM2 ANTIBODIES AND METHODS OF USE THEREOF” (Denali Therapeutics Inc., priority 2017, published 2020):
Where a chain is given by its changes, count along the chain named.

Columns and labels:
TREM2 [1] = target: T1, TREM2 (Homo sapiens, UniProt Q9NZC2); test: FACS binning on human TREM2-HEK cells (competition with R&D antibody); format: binding; details: epitope bin, 100 nM antibody
T1 construct: expressed in transfected cells
Protocol: HEK293 overexpressing human TREM2 (H6) were harvested by 0.05% trypsin and incubated at 37° C. incubator for 2 hours for surface TREM2 recovery. After incubation, cells were washed with 1×PBS and FACS buffer (PBS+0.5% BSA) with human Trustain FcX solution (Biolegend, Cat #422302) was added at a density of 10^6/mL. Cells were seeded at 100,000 cells per well in a 96-well round-bottom and incubated 20 minutes at room temperature. After incubation, anti-TREM2 antibodies (100 nM) were added to the cells and the cells were incubated for 45 minutes on ice. After incubation, rat anti-h/mTREM2-APC antibody (1:100, R&D, Cat # FAB17291A) was added to the cells, and the cells were incubated for 30 minutes on ice. After incubation, cells were washed with FACS buffer three times and resuspended in 10 μL FACS buffer, then analyzed by flow cytometry (BD FACSCanto II, San Jose, Calif.). 20,000 events were obtained for each sample. The ability to compete with R&D antibody was determined by MFI analysis compared to isotype or buffer control wells.
T1 sequence (O43914 22-113 partner, one chain of several): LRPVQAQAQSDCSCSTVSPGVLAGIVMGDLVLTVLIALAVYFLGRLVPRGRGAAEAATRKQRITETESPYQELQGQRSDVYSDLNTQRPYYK

hTREM2 = target: T2, hTREM2 (Homo sapiens, UniProt Q9NZC2); test: Octet binning (competition with R&D antibody on biotinylated TREM2-His); format: binding; details: epitope bin, 100 nM
T2 construct: The ecto domain (residues 19-172) of TREM2 (UniProtKB—Q9NZC2); secretion signal of mouse Ig kappa chain V-III (P01661 aa 1-20) (N); made in house; host or cells: Expi293F
T2 sequence (Q9NZC2 19-172): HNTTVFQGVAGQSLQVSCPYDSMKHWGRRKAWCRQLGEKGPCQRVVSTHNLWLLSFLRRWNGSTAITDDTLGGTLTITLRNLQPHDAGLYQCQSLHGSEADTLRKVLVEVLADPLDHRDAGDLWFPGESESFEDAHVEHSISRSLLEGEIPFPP
Protocol: Competition with R&D antibody was done by Octet Red using biotinylated human Trem2-His protein generated in house. Biotinylated human TREM2-His protein was captured on a streptavidin tip, and the tip was then incubated in either 100 nM of R&D Ab or buffer for 3 minutes, followed by incubation for 3 minutes in 100 nM of testing hybridoma. The difference of hybridoma binding curve with or without pre-binding to R&D antibody was analyzed to determine the epitope.

soluble TREM2 (sTREM2) = target: T3, soluble TREM2 (sTREM2) (Homo sapiens, UniProt Q9NZC2); test: Soluble TREM2 (TREM2 shedding) assay in HEK293 TREM2/DAP12 cells; format: cell-based; parameters: key to STREM2: NC = no change; −− = reduced sTREM2; ++ = increased sTREM2; details: for STREM2: change in sTREM2 levels
T3 construct: expressed in transfected cells
T3 sequence (O43914 22-113 partner, one chain of several): as the sequence (O43914 22-113 partner, one chain of several) above
Protocol: HEK293 cells stably expressing human TREM2 and DAP12 were plated onto 96-well plates pre-coated with poly-D-lysine 4-16 hours prior to antibody treatment. Antibody supernatants or control antibodies were diluted into fresh complete media and added onto cells in triplicate. Cells were incubated with antibody containing media for 18 hours prior to removal of the cell supernatant for assay by TREM2 ELISA. Samples and standards were diluted 1:10 into blocking buffer (3% BSA/TBST) in the assay plate. Briefly, MSD small spot streptavidin plates were coated with biotinylated anti-hTREM2 polyclonal antibody (R&D Systems) overnight at 4° C. or 1 hour at room temperature. Plates were then blocked overnight at 4° C., or 1 hour at room temperature, with blocking buffer, 3% BSA/TBST. Plates were washed three times with TBST in a Biotek plate washer (used for all washes) prior to addition of diluent (blocking buffer) and denatured supernatants from cell culture. A TREM2-His protein diluted in 3% BSA/TBST was used as a standard for absolute quantification. Following 1 hour incubation at room temperature, plates were washed with TBST. The primary detection antibody, sulfo-tagged goat anti-human TREM2 (R&D Systems), diluted in 3% BSA/TBST was added and incubated for 1 hour at room temperature. After washing with TBST, MSD plates were developed using 2×MSD read buffer T, followed by detection using an MSD Sector plate reader. MSD values were converted to absolute quantities of sTREM2 by fitting a standard curve using Prism 7.0 software (Graphpad). Modulation of TREM2 shedding was represented as a ratio to cells cultured with no specific TREM2 antibody in the media.

human macrophages [2] = test: Cell survival assay, human monocyte-derived macrophages, restricted or no M-CSF, CellTiter Glo; format: cell-based; details: plate coated antibody, 5 ng/mL or no M-CSF, day 6
Protocol: TREM2 can support microglia energy homeostasis (Ulland et al., Cell, 2017, 170:649-663). […] To understand if enhancing TREM2 activity with TREM2 agonistic antibodies is sufficient for macrophage/microglia survival under limited M-CSF conditions, human macrophage differentiation and survival studies were performed using antibodies as described herein. Human monocytes isolated from peripheral blood were incubated with 5 ng/mL M-CSF in the presence of titrated concentrations of plate coated TREM2 antibodies or isotype controls. On day 6 cell viability was determined by CellTiter Glo viability assay.

human macrophages [3] = test: Signaling pathway Alpha-LISA (pSYK, pERK1/2, pGSK3-beta, pAKT) in human macrophages; format: cell-based; details: 15 minutes
Protocol: Anti-TREM2 antibodies were characterized for activation of several signaling pathways, SYK, ERK1/2, AKT and GSK3-beta. Human macrophages differentiated from peripheral monocytes were plated in 96-well plates at a density of 100,000 cell/well. The assay was tested in three conditions (0%, 0.5%, and 10% FBS in the media) for 3 hours. Cells were stimulated with the antibody RS9.F6, 24B4.A1, 8A11.B1, 3D3.A1, 54C2.A1, isotype control IgG2ak, rat anti-TREM2 from R&D, isotype control rat IgG2b, or no treatment (NT) for 15 minutes. The cell lysates were measured for p-Y525/526-SYK, p-T202/Y204-ERK1/2, p-S9-GSK3-beta, and p-S473-AKT using Alpha-LISA kits (Perkin Elmer). […] The antibodies stimulated p-GSK signal moderately (FIG. 6C).

TREM2 [4] = target: T4, TREM2 (Homo sapiens, UniProt Q9NZC2); test: TREM2 pSyk antagonist assay on human macrophages (antibody pre-incubation, then liposomes); format: cell-based; details: FIGS. 9C-9D, 30 nM antibody
T4 construct: macrophage cells that endogenously express TREM2; endogenous in cells; host or cells: primary human monocyte-derived macrophages from donor blood
T4 sequence (Q9NZC2 19-230): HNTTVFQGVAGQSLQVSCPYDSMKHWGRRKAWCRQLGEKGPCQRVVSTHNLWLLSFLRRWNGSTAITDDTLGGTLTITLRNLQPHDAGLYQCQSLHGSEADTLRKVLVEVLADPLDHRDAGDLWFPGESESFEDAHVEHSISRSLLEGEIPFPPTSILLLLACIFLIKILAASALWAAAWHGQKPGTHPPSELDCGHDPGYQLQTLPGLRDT
Protocol: (§1) Human macrophages were differentiated from donor blood using a human monocyte enrichment cocktail (Stem Cell Technologies) and culturing monocytes with human mCSF for five days in macrophage media (RPMI+10% Hyclone FBS+Glutamax+Pen/Strep+non-essential amino acids+sodium pyruvate). On the fifth day, the human macrophages were scraped from the flasks and were re-plated at 100,000 cells/well on a 96-well poly-D-lysine-coated plate in the macrophage media (without mCSF). The cells were incubated for 24 hours to adhere, then the media was removed.
Antibodies diluted in RPMI alone were immediately added to the cells, and allowed to incubate for 30 minutes at 37° C. The antibodies were then removed. Lipid vesicles comprised of 70% DOPC and 30% POPS (made according to the procedure for making vesicles described above) in HBSS were added to the cells and incubated […] at 37° C. The liposome/antibody solution was removed, and 35 μL lysis buffer (Cell Signaling Technologies, CST) was added using the liquid handler. The lysate was then incubated at 4° C. for 30 minutes, then either frozen at −80° C. or immediately carried forward to a pSyk AlphaLISA assay as described above.

TREM2 [5] = target: T4, TREM2; test: TREM2 PAM/pSyk assay on human macrophages; format: cell-based
Protocol: as §1
Antibodies pre-mixed with lipid vesicles comprised of 70% DOPC and 30% POPS (made according to the procedure for making vesicles described above) diluted in HBSS were immediately added to the cells, and allowed to incubate for 5 minutes at 37° C. The liposome/antibody solution was removed, and 35 μL lysis buffer (Cell Signaling Technologies, CST) was added using the liquid handler. The lysate was then incubated at 4° C. for 30 minutes, then either frozen at −80° C. or immediately carried forward to a pSyk AlphaLISA assay as described above. […] The results of the assay are shown in FIG. 9B and in Table 8 below.

B1: 42E8.H1: anti-TREM2 antibody clone; VH SEQ ID NO:20, VL SEQ ID NO:31 (antibody, V domains shown)
VH: DVQLQESGPGLVKPSQSLSLTCTVTGYSITSDYAWNWIRQFPGNKLEWMGYINYSGRTIYNPSLKSRISITRDTSKNHFFLQLISVTTEDTATYYCARWNGNYGFAYWGQGTLVTVSA
VL: DVVMTQNPLSLPVSLGDQASISCRSSQSLVHINGNTYLHWYLQKPGQSPKLLIYKVSNRFSGVPDRFSGSGSGTDFTLKISRVEAEDLGVYFCSQTTHALFTFGSGTKLEIK
Bin by FACS (TREM2 [1]): 1 | Bin by Octet (hTREM2): 1 | TREM2 shedding (in words) (soluble TREM2 (sTREM2); FIG. 4, 18 hours): blocks TREM2 shedding | STREM2 (soluble TREM2 (sTREM2)): −−

B2: 49H11.B1: anti-TREM2 antibody clone; VH SEQ ID NO:21, VL SEQ ID NO:32 (antibody, V domains shown)
VH: B1 VH with K45R, N53S, Y54F, R57S, I59S, H78Q, I84N
VL: B1 VL with N7T, T96S, A99V, L100T
Bin by FACS (TREM2 [1]): 1 | Bin by Octet (hTREM2): 1

B3: 24B4.A1: anti-TREM2 antibody clone; VH SEQ ID NO:17, VL SEQ ID NO:28 (antibody, V domains shown)
VH: QVHLQQSGSELRSPGSSVKLSCKDFDSEVFPISYMSWIRQKPGHGFEWIGDILPSIGGRIYGVKFEDRATLDADTVSNTAYLELNSLTSEDSAIYYCARKDYGSLAYWGQGTLVTVSA
VL: B1 VL with N7T, H39Q, Y41F, D75A, T96S, A99V, L100P, F101Y, S105G
Bin by FACS (TREM2 [1]): 1 | Bin by Octet (hTREM2): 1 | STREM2 (soluble TREM2 (sTREM2)): NC | survival of human macrophages (human macrophages [2]): increased the survival | p-SYK signal (human macrophages [3]): robust | pERK1/2 signal (human macrophages [3]): robust

B4: 26E2.A3: anti-TREM2 antibody clone; VH SEQ ID NO:17, VL SEQ ID NO:28 (antibody, V domains shown)
VH: B3 VH
VL: B1 VL with N7T, H39Q, Y41F, D75A, T96S, A99V, L100P, F101Y, S105G
liposome mediated pSyk signaling after antibody pre-incubation (TREM2 [4]): enhanced

B5: RS9.F10: anti-TREM2 antibody clone; likely VH SEQ ID NO:6, VL SEQ ID NO:7 (antibody, V domains shown)
VH: QVQLQQPGAELVKPGASVKLSCKASGYTFTSYWMHWVKQSPGRGLEWIGRSDPTTGGTNYNEKFKTKATLTVDKPSSTAYMQLSSLTSDDSAVYYCVRTSGTGDYWGQGTSLTVSSAKTTAPSVYPLAPVCGGTTGSSVT
VL: DVVMTQTPLSLPVSLGDQASISCRSSQSLVHNNGNTFLHWYLQKPGQSPKLLIYKVSNRFSGVPDRFSGSGSGTDFTLKISRVEAEDLGVYFCSQTTHVPPTFGGGTKLEIKRADAAPTVSIFPPSSEQLTSGGASVVCF
STREM2 (soluble TREM2 (sTREM2)): NC

B6: 7B10.A2: anti-TREM2 antibody clone; VH SEQ ID NO:306, VL SEQ ID NO:310 (antibody, V domains shown)
VH: EVQLQQSGPELVKPGASVKMSCKASGYTFTDYNMHWVKQSHGKSLEWIGYINPNNGGTTYNQKFKGKATLTVNKSSSTAYMELRSLTSEDSAVYYCATYNNHYFDSWGQGTTLTVSS
VL: DIQMTQTTSSLSASLGDRVTISCSASQGISNYLNWYQQKPDGTVKLLIYYTSNLHSGVPSRFSGSGSGTDYSLTISNLEPEDIATYYCQQYSNLPYTFGGGTKLEIK
effect on lipid ligand activation of TREM2 (in words) (TREM2 [5]; FIG. 9B, human macrophages): synergistic with lipid TREM2 activators | Slope + Liposome (TREM2 [5]; pSyk, 10 nM antibody with 0, EC20, EC50, EC80 PS/PC liposomes, liposome-alone signal subtracted): 5,370

B7: 26D2.D1: anti-TREM2 antibody clone; VH SEQ ID NO:16, VL SEQ ID NO:27 (antibody, V domains shown)
VH: EVQLQQSGPELVKPGASVKMSCKASGYTFTSYVMHWVKQKPGQGLEWIGYINPYTDGTKYNEKFKGKATLTSDKSSSTAYMDLSSLTSEDSAVYYCARGEVRRYALDYWGQGTSVTVSS
VL: DIQMTQSSSSFSVSLGDRVTITCKASEDIYNRLAWYQQKPGNAPRLLISGATSLETGVPSRFSGSGSGKDYTLSITSLQTEDVATYYCQQYWSTPWTFGGGTKLEIK
liposome mediated pSyk signaling after antibody pre-incubation (TREM2 [4]): blocked | Bin by FACS (TREM2 [1]): 3 | Bin by Octet (hTREM2): 1-2 | STREM2 (soluble TREM2 (sTREM2)): NC
